These results are taken from patent publication US10117886B2, “Hyaluronidase and a low density second PEG layer on the surface of therapeutic-encapsulated nanoparticles to enhance nanoparticle diffusion and circulation” (priority 2014, dated 2018).

Structures can show the parent of a compound that is named as a salt. Where two headings read alike, the source gives them in different places.

The subject of one series is 4T1 tumors. As to the kind of experiment: Antitumor efficacy in mouse 4T1 syngeneic breast tumor model. It counts as in vivo. As to conditions: 2 mg/kg DOX; (MST treated/MST control −1)×100. As to the method:
Efficacy of the nanoparticles produced in Example 2 was evaluated in a mouse 4T1 syngeneic breast tumor model, in which the host BALB/c mouse is immune-competent, and the tumor growth and metastatic spread of 4T1 cells closely mimic human breast cancer. Female BALB/c mice at 6 weeks were ordered and within a one-week stay, 50 μL of 1×10^7 4 T1 cells/mL in PBS was injected at the mammary fat pad on the right flank of the mice. Tumor size was calculated using V=0.5×width^2×length.
The nanoparticles with encapsulated DOX produced in Example 2 were used to treat tumors in a mouse 4T1 syngeneic breast tumor model BALB/c mice. The mice were randomly assigned into 4 groups and injected with saline, free DOX in saline, DOX-PLGA-PEG-NPs and DOX-PLGA-PEG-PH20-NPs (PH20 activity of DOX-PLGA-PEG-PH20-NPs is 500 U/mouse) at 2 mg/kg mice of DOX at 9, 11, 14, 17, 20 days after inoculation of 4T1 cells in the mice. The tumors reached a size of 150-250 mm^3 at day 9 before treatment. Tumor sizes were monitored throughout the whole study (FIG. 14A). The survival rate was studied based on the number of mice in each group that survived over time. MST (day) was defined as the time at which half of the mice had died.
The percentage ILS (%) was calculated using the following equation: ILS (%)=[(MST of treated group/MST of control group) −1]*100. […]

The conditions of series [1]: free PH20, cited from earlier work.
Series [2] concerns pericellular HA matrix of 4T1 cells. As to the kind of experiment: Degradation of pericellular HA of 4T1 cells (HA staining, RBC exclusion assay). It counts as cell-based, mouse. As to the method:
The nanoparticles produced in Example 2 were tested on tumor cell line 4T1, which synthesizes HA and forms a layer of HA matrix around the cells. 4T1 cells were maintained in a RPMI-1640 medium (ATCC) containing 10% fetal bovine serum in 5% CO2 in an incubator at 37° C. 4T1 cells were cultured on round glass coverslips in a 12-well plate for one day to reach 70% confluency before treatment with the nanoparticles. DiD-labeled PLGA-PEG-NPs (no PH20 activity) and DiD-labeled PLGA-PEG-PH20-NPs (conjugated 10 U/mL PH20 activity) were used for this test. The amount of nanoparticles in all samples was equalized via fluorescence intensity. […]
The 4T1 cells were then washed and fixed and observed under a confocal microscope (Olympus IX81, 60×, C.A.=80 μm) with 405 nm and 635 nm lasers for DAPI and DiD respectively. […] The total fluorescence intensity of DiD was quantified via Image J and averaged by the number of cells.
RBCs were collected fresh from mice and washed three times with PBS before being resuspended in 2% formaldehyde in PBS for fixation of the RBCs overnight at room temperature. […] The areas of exclusion (no RBCs) were quantified through ImageJ. […]

Series [3] concerns pericellular HA layer around PC3 cells. Put plainly: Degradation of pericellular HA layer around PC3 cells by free PH20. It counts as cell-based, human. As to conditions: 1000 U of free PH20 for 1 h.

With `COc1cccc2c1C(=O)c1c(O)c3c(c(O)c1C2=O)C[C@@](O)(C(=O)CO)C[C@@H]3O[C@H]1C[C@H](N)[C@H](O)[C@H](C)O1` [Free DOX, Doxorubicin Hydrochloride salt], in the series with 4T1 tumors, the “percentage increased life span ILS (%)” value stood at 10%.

B1: free PH20: recombinant human hyaluronidase PH20 obtained from Halozyme, Inc, unconjugated (protein, UniProt P38567 36-490, looked up)
Hyaluronidase PH-20: LNFRAPPVIPNVPFLWAWNAPSEFCLGKFDEPLDMSLFSFIGSPRINATGQGVTIFYVDRLGYYPYIDSITGVTVNGGIPQKISLQDHLDKAKKDITFYMPVDNLGMAVIDWEEWRPTWARNWKPKDVYKNRSIELVQQQNVQLSLTEATEKAKQEFEKAGKDFLVETIKLGKLLRPNHLWGYYLFPDCYNHHYKKPGYNGSCFNVEIKRNDDLSWLWNESTALYPSIYLNTQQSPVAATLYVRNRVREAIRVSKIPDAKSPLPVFAYTRIVFTDQVLKFLSQDELVYTFGETVALGASGIVIWGTLSIMRSMKSCLLLDNYMETILNPYIINVTLAAKMCSQVLCQEQGVCIRKNWNSSDYLHLNPDNFAIQLEKGGKFTVRGKPTLEDLEQFSEKFYCSCYSTLSCKEKADVKDTDAVDVCIADGVCIDAFLKPPMETEEPQIFYNASPSTLS
Take B1: the circulation half-life entry in series [1] is “less than 3 min”; in series [1] (listed as PH20) it was 3 min. The “amount of HA around 4T1 cells, RBC exclusion” value in series [2] (1000 U/mL of PH20, 2 h, 37° C.) is listed as “reduced to a low level that could no longer block RBCs”. In addition, the “degradation of pericellular HA layer around 4T1 cells” value in series [2] (3000 U of free PH20 for 1 h) is recorded as “sufficient to degrade the pericellular HA layer around 4T1 cells”. In addition, the “degradation of pericellular HA layer” value in series [3] was “sufficient to degrade the pericellular HA layer around PC3 cells”.
